Values of other authors in publication PMC7080216.
pKi: −log10 of the molar value.

Experiments:
[1] = target: cathepsin G (Homo sapiens) (UniProt P08311)
[2] = target: matriptase (Homo sapiens) (UniProt Q9Y5Y6)
Sequence of UniProt Q9Y5Y6 (Q9Y5Y6 whole entry): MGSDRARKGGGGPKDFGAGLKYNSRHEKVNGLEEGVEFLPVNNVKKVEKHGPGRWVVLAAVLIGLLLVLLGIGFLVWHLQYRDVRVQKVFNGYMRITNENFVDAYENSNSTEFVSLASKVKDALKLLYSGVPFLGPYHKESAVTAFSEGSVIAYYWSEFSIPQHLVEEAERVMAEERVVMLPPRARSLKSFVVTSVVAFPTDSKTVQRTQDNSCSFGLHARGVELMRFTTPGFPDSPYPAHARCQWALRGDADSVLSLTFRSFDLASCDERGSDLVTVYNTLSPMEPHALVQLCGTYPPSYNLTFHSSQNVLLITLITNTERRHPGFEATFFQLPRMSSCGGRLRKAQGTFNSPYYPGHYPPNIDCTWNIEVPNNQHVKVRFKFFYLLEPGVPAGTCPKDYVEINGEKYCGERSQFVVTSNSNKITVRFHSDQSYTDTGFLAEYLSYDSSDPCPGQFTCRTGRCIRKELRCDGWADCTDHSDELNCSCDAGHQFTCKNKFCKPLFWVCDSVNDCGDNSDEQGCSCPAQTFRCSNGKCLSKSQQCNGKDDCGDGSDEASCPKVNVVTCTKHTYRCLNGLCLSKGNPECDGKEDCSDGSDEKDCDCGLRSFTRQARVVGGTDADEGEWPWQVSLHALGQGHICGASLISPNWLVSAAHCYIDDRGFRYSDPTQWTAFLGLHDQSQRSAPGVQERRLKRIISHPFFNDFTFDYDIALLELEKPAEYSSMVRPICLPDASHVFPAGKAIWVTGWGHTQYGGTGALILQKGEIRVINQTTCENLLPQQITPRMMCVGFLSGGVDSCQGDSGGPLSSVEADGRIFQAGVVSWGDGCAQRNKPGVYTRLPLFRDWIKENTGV

Sequence of UniProt P08311 (P08311 21-243): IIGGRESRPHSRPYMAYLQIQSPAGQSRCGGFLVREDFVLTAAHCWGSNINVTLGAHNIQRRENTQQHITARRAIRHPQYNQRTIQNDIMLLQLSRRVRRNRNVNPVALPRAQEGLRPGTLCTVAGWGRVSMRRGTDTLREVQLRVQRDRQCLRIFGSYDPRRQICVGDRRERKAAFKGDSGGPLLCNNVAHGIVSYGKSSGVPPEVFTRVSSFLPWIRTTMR

pKi [1]: 6.24 | pKi [2]: 9.00
Substance: SFTI-1 (from UniProt Q4GWU5)
